Blank lines part the entries; values can stand above or below the molecule they belong to.
B1: McrC endonuclease (enzyme, Escherichia coli, UniProt P15006 1-348, looked up)
chain: MEQPVIPVRNIYYMLTYAWGYLQEIKQANLEAIPGNNLLDILGYVLNKGVLQLSRRGLELDYNPNTEIIPGIKGRIEFAKTIRGFHLNHGKTVSTFDMLNEDTLANRIIKSTLAILIKHEKLNSTIRDEARSLYRKLPGISTLHLTPQHFSYLNGGKNTRYYKFVISVCKFIVNNSIPGQNKGHYRFYDFERNEKEMSLLYQKFLYEFCRRELTSANTTRSYLKWDASSISDQSLNLLPRMETDITIRSSEKILIVDAKYYKSIFSRRMGTEKFHSQNLYQLMNYLWSLKPENGENIGGLLIYPHVDTAVKHRYKINGFDIGLCTVNLGQEWPCIHQELLDIFDEYLK
notes: McrC, endonuclease of the McrBC restriction system, Escherichia coli; Dimer in the complex; Chain N of PDB 6HZ4 holds only residues 193-343 of the second copy; source: E. coli BL21(AI), purified (Ni-NTA, MonoS)
B2: McrBΔN (McrB construct lacking the first 161 residues; AAA+ domain of McrB) (domain or fragment, Escherichia coli, UniProt P15005 162-459, looked up)
chain: MSKTESYCLEDALNDLFIPETTIETILKRLTIKKNIILQGPPGVGKTFVARRLAYLLTGEKAPQRVNMVQFHQSYSYEDFIQGYRPNGVGFRRKDGIFYNFCQQAKEQPEKKYIFIIDEINRANLSKVFGEVMMLMEHDKRGENWSVPLTYSENDEERFYVPENVYIIGLMNTADRSLAVVDYALRRRFSFIDIEPGFDTPQFRNFLLNKKAEPSFVESLCQKMNELNQEISKEATILGKGFRIGHSYFCCGLEDGTSPDTQWLNEIVMTDIAPLLEEYFFDDPYKQQKWTNKLLGDS
notes: McrB, AAA+ GTPase of the McrBC restriction system, Escherichia coli; Forms a hexameric ring in the structure; two rings per tetradecamer; also called McrB∆N; source: E. coli BL21(AI), purified (Ni-NTA, MonoQ, Superdex200)

What was measured:
MantGMPPNP (GNP) = experiment: Mant-nucleotide fluorescence time trace (MantGMPPNP + buffer, then protein added); conditions: protein added at about 160 s, signal before protein est. 26000, parent: est. 40000
[1] = target: the molecule itself; experiment: cryo-EM structure; McrBΔN and McrC mixed 4:1 with GTP and MgCl2, complex purified by SEC; grids with 4.0 mg/ml McrBΔNC in 10 mM Tris-HCl pH 7.4, 2.0 mM GNP, 0.10 M NaCl, 5.0 mM MgCl2
McrC endonuclease = target: B1; experiment: as above; conditions: both partners purified
[2] = value is the mean of the trace after addition, read off a plot

response (MantGMPPNP (GNP); [2]): 28000 CPS/µAmps
Molecule: McrB (wild type) (from UniProt P15005) R348A

response (MantGMPPNP (GNP); trace hidden under R348A, which the legend says it overlaps, read off a …): 28000 CPS/µAmps
Molecule: McrB (wild type) (from UniProt P15005) R349A

response (MantGMPPNP (GNP); [2]): 39000 CPS/µAmps
Molecule: McrB (wild type) (from UniProt P15005) E298A

Molecule: B1
stoichiometry N [1]: 2

Molecule: B2
binding result (McrC endonuclease): binds
